Data published in PMC9564178 (Cells, 2022).

What was measured:
[1] = target: T1, human recombinant TPPP1 (hexaHis fusion) (human, UniProt O94811 1-219); test: ELISA; TPPP3 immobilised (5 μg/mL, PBS); recombinant TPPP1 added at different concentrations, without HeLa extract; detected by monoclonal TPPP1 antibody; apparent Kd, single-site hyperbola; settings: both partners purified
T1 construct: human TPPP1 (Tubulin Polymerization Promoting Protein, TPPP/p25), UniProtKB O94811, 219 amino acids; probably the whole 219-residue protein; also called TPPP/p25; source: E. coli BL21 (DE3), isolated on a HIS-Select Cartridge

[2] = target: T1, human recombinant TPPP1 (hexaHis fusion); test: ELISA; TPPP3 immobilised; recombinant TPPP1 added at different concentrations with extract of non-transfected HeLa cells (0.32 mg/mL); detected by monoclonal TPPP1 antibody; apparent Kd; settings: both partners purified

T1 sequence (O94811 whole entry, the tested form may be a part): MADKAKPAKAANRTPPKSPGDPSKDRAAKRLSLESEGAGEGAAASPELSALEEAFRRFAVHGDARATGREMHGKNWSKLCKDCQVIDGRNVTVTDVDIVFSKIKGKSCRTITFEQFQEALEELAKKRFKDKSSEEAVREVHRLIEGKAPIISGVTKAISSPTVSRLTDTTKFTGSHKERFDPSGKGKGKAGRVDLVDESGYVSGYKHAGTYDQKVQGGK

B1: human recombinant TPPP3 (hexaHis fusion) (natural protein)
chain: AGLEESFRKFAIHGDPKASGQEMNGKNWAKLCKDCKVADGKSVTGTDVDIVFSKVKGKSARVINYEEFKKALEELATKRFKGKSKEEAFDAICQLVAGKEPANVGVTKAKTGGAVDRLTDTSRYTGSHKERFDESGKGKGIAGRQDILDDSGYVSAYKNAGTYDAKVKK
notes: human TPPP3 (Tubulin Polymerization Promoting Protein 3), UniProtKB Q9BW30, 176 amino acids; probably the whole 176-residue protein; also called TPPP/p20; source: E. coli BL21 (DE3), isolated on a HIS-Select Cartridge
Kd [1]: 6.53 nM
Kd [2]: 47.7 nM
